Earlier results on 1 substance are cited in PMC3946517.

Some results are limits rather than exact numbers.

Data set [1] deals with preMADH (Paracoccus denitrificans) (UniProt P22619). Description: stopped-flow kinetics.
For data set [2], the target named is quinol MADH (Paracoccus denitrificans) (UniProt P22619). The data set is described as follows: stopped-flow kinetics.

One may read the Kd as the equilibrium constant for the complex coming apart. For the substance MauG (from UniProt Q51658), the Kd in data set [1] was under 1.5 µM; in data set [2] it was 11.2 µM.
